Data reported in PMC11633381, “Acarbose impairs gut Bacteroides growth by targeting intracellular glucosidases” (mBio, 2024).

Molecular target: the molecule itself
Experiment: SEC; 0.5 mL of 10.6 mg/mL BoSusA or 8.2 mg/mL SusA on HiPrep 16/60 Sephacryl S-200 HR, 20 mM HEPES, 100 mM NaCl, pH 7.0, 0.5 mL/min; compared with BioRad gel filtration standards

B1: SusA, periplasmic GH13 neopullulanase/alpha-amylase of the Bacteroides thetaiotaomicron Sus (enzyme, UniProt Q8A1G0 23-617, looked up)
chain: TSTIKKVAPTFWWAGMKNPELQILLYGDRISSADVSLSADNITLQEVVKQENPNYLVLYLDLSKAAPQNFDIILKQGKKQTKIPYELKQRRPNASAVEGFDSSDVLYLIMPDRFANGNPSNDIIPGMLEGNVDRNEPFARHGGDLKGIENHLDYIADLGVTSIWLNPIQENDMKEGSYHGYAITDYYQVDRRFGSNEEFRKLTQEANAKGLKVVMDMIFNHCGSDNYLFKDMPSKDWFNFEGNYVQTSFKTATQMDPYASDYEKKIAIDGWFTLTMPDFNQRNRHVATYLIQSSIWWIEYAGINGIRQDTHPYADFDMMARWCKAVNEEYPKFNIVGETWLGNNVLISYWQKDSRLAYPKNSNLPTVMDFPLMEEMNKAFDEETTEWNGGLFRLYEYLSQDIVYSHPMSLLTFLDNHDTSRFYRSEADTKNLDRYKQALTFLLTTRGIPQIYYGTEILMAADKANGDGLLRCDFPGGWPNDTKNCFDAANRTPQQNEAFSFMQKLLQWRKGNEVIAKGQLKHFAPNKGVYVYERKYGDKSVVVFLNGNDREQTIDLVPYQEILPASSAFDLLTEKKVELRNELTLPSREIYLLSF
notes: SusA, Bacteroides thetaiotaomicron VPI-5482, locus tag bt_3704 (NCBI AAO78809.1, 617 amino acids); cloned starting with T23, after the SPI signal peptide; also called bt_3704
stoichiometry N: 2
